Reference: patent publication US20120108455A1

Assays:
[1] = target: FLAG-tag marker (Alpha Diagnostic Cat # FLAG15-R); test: ELISA, 25% human serum in KRB, pH 7.4
[2] = target: FLAG-tag marker (Alpha Diagnostic Cat # FLAG15-R); test: ELISA, 25% human serum in KRB, pH 6.0
[3] = target: Multifusion-tagged marker (Alpha Diagnostic Cat # MFPM20-C); test: ELISA, 25% human serum in KRB, pH 7.4
[4] = target: Myc-tag marker (Alpha Diagnostic Cat # Myc15-R); test: ELISA, 25% human serum in KRB, pH 7.4
[5] = target: Myc-tag marker (Alpha Diagnostic Cat # Myc15-R); test: ELISA, 25% human serum in KRB, pH 6.0

Kd [1] [µg/mL]	Kd [2] [µg/mL]	Kd [3] [µg/mL]	Kd [4] [µg/mL]	Kd [5] [µg/mL]	Substance
0.224	0.135	–	–	–	anti-FLAG antibody (Abcam, ab1238)
–	–	0.02	0.00798	0.00773	anti-myc antibody (Abcam, #ab1326)
